From patent US12233115B2, “Long-acting parathyroid hormone” (Extend Biosciences, Inc., priority 2022, dated 2025) come the findings set out here.

Data set [1] can be described thus: Solubility in PBS (A280). It is filed as physicochemical. Here is the method:
PEG Length and Counterion Affects Solubility: The solubility of the acetate and carbonate salt form of each compound was determined as follows. For EXT611, EXT606, and EXT608, phosphate buffered saline (PBS) was added to each compound to form a saturated solution. Undissolved compound was removed by centrifugation. The concentration of dissolved compound was determined by measuring the absorbance at 280 nm using an extinction coefficient of 18,600 M^−1 cm^−1. For EXT615, EXT616, and EXT617, solubility was limited practically by the high viscosity imparted by the large PEG moieties. Highly viscous drug formulations are difficult to manipulate and require large needle bore sizes that cause increased injection site pain. PBS was added to EXT615, EXT616, and EXT617 incrementally until a solution was obtained that could be successfully pipetted through a pipet tip with a bore of approximately 1 mm diameter (enlarged by removing the end with a razor blade). The concentration of dissolved compound was determined by measuring the absorbance at 280 nm using an extinction coefficient of 18,600 M^−1 cm^−1. […] For EXT608, the acetate salt was 17.6-fold more soluble than the carbonate salt.

Data set [2] can be described thus: Single dose pharmacokinetics of EXT607 in male cynomolgus monkeys. Conditions: cynomolgus monkey, in vivo, sc; NHP, after subcutaneous dosing; read-out: terminal half-life. In kind it is in vivo. Here is the method:
In a single dose pharmacokinetic study, EXT607 was formulated in PBS and groups of male cynomolgus monkeys (n=3), weighing approximately 4 kg each, were dosed at a volume of 1 ml/kg as follows: Group 1, 20 μg/kg intravenous; Group 2, 7 μg/kg subcutaneous; Group 3, 20 μg/kg subcutaneous; Group 4, 70 μg/kg subcutaneous. Blood (1.0 mL) was collected via the jugular vein cannula, transferred into tubes containing K2EDTA, and kept on wet ice until processed for plasma. Blood samples were collected at 0 (pre-dose), 0.083 (IV only), 0.25, 0.5, 1, 2, 4, 6, 8, 12, 24, 36, 48, 60 and 72 h post-dose.
Pharmacokinetic parameters were determined from the plasma concentration versus time data (Table 5) by a non-compartmental analysis with uniform weighting using Phoenix® WinNonlin® Version 6.3 (Certara L.P. (Pharsight), St. Louis, MO). The concentration versus time data were analyzed using the IV bolus or extravascular administration models. Best fit Lambda z ranges were used.
At low doses, the rate of subcutaneous absorption is slower than at high doses, leading to a lower Cmax and an overall flatter PK profile.

The nature of data set [3]: Repeat dose pharmacokinetics of EXT608 in male and female rats. In kind it is in vivo. The settings on record: rat; for Cmin: 0-24 h; for AUC(0-t): sc, read-out: AUC0-24 h. Here is the method:
21-Day Experiment: EXT608 was formulated in 20 mM sodium acetate pH=5.5 buffer with 0.8% sodium chloride. In a repeat dose toxicokinetic study, groups of 18 rats (9 males+9 females) were subcutaneously dosed daily at a volume of 0.5 ml/kg with either 14.2 μg/kg or 70 μg/kg of EXT608. On Day 21, blood samples (˜0.5 ml) were collected at t=0 (pre-dose), 0.5, 1, 3, 8, 24, 32, 48, and 72 h with each timepoint being collected from one of three cohorts of 3 male and 3 female animals. Each blood sample was collected from the jugular vein into tubes containing K2EDTA and manually inverted several times. Blood samples were kept on wet ice pending centrifugation. Samples were centrifuged (˜2700 g, ˜10 min, ˜5° C.) within 1 hour of collection. Plasma was recovered and divided evenly into duplicate aliquots and frozen. 90-Day Experiment: EXT608 was formulated in 20 mM sodium acetate pH=5.5 buffer with 0.8% sodium chloride and 0.1% Polysorbate 80. In a repeat dose toxicokinetic study, groups of 18 rats (9 males+9 females) were subcutaneously dosed daily at a volume of 0.5 ml/kg with either 1, 3, or 10 μg/kg of EXT608. On Day 90, blood samples (˜0.5 ml) were collected at t=0 (pre-dose), 0.5, 1, 3, 8, 24, 32, 48, and 72 h with each timepoint being collected from one of three cohorts of 3 male and 3 female animals. Plasma was prepared as described above for the 21-Day experiment. […] Group-averaged EXT608 levels as a function of time are shown in FIG. 13 for the last dose administration after either 21 days of daily dosing (14.2 and 70 μg/kg) or 90 days of daily dosing (1, 3, and 10 μg/kg). Surprising, the PK profiles changed as a function of dose level. […] Pharmacokinetic parameters were determined from the plasma concentration versus time data (Table 6) by a non-compartmental extravascular administration model with uniform weighting using Phoenix® WinNonlin® Version 6.4 (Certara L.P. (Pharsight), Princeton, NJ). Pharmacokinetic analysis was performed on data collected from t=0 to 72 h following the last administered dose. […] The Cmax/Cmin ratio represents the peak-to-trough ratio of EXT608 concentration that was observed during the dosing period. […] Without being bound by theory, the low peak-to-trough ratios observed at low doses could be the result of a slower rate of absorption of EXT608 from the subcutaneous space into circulation. A low peak-to-trough ratio is desirable in many therapeutic applications, including parathyroid hormone replacement therapy. It allows dosing at levels close to the ideal efficacious dose without going too high where toxicity might be observed or too low where the efficacy is reduced.

Setting [4] is: in vivo, 1 ug/kg, daily SC 1 μg/kg, 90 days.

Read-outs that look alike come from different tables or passages of the source.

Regarding `C=C1CC[C@H](OCCCNC(=O)CCOCCOCCOCCOCCOCCOCCOCCOCCOCCOCCOCCOCCOCCOCCOCCOCCOCCOCCOCCOCCOCCOCCOCCOCCOCCOCCOCCOCCOCCOCCOCCOCCOCCOCCOCCOCCNC(=O)CCN2C(=O)CC(SC[C@H](NC(=O)[C@H](Cc3ccccc3)NC(=O)[C@H](CC(N)=O)NC(=O)[C@H](Cc3c[nH]cn3)NC(=O)[C@@H](NC(=O)[C@H](CC(=O)O)NC(=O)[C@H](CCC(N)=O)NC(=O)[C@H](CC(C)C)NC(=O)[C@H](CCCCN)NC(=O)[C@H](CCCCN)NC(=O)[C@H](CCCNC(=N)N)NC(=O)[C@H](CC(C)C)NC(=O)[C@H](Cc3c[nH]c4ccccc34)NC(=O)[C@H](CCC(=O)O)NC(=O)[C@@H](NC(=O)[C@H](CCCNC(=N)N)NC(=O)[C@H](CCC(=O)O)NC(=O)[C@H](CCSC)NC(=O)[C@H](CO)NC(=O)[C@H](CC(N)=O)NC(=O)[C@H](CC(C)C)NC(=O)[C@H](Cc3c[nH]cn3)NC(=O)[C@H](CCCCN)NC(=O)CNC(=O)[C@H](CC(C)C)NC(=O)[C@H](CC(N)=O)NC(=O)[C@H](Cc3c[nH]cn3)NC(=O)[C@H](CCSC)NC(=O)[C@H](CC(C)C)NC(=O)[C@H](CCC(N)=O)NC(=O)[C@@H](NC(=O)[C@H](CCC(=O)O)NC(=O)[C@H](CO)NC(=O)[C@@H](NC(=O)[C@@H](N)CO)C(C)C)[C@@H](C)CC)C(C)C)C(C)C)C(N)=O)C2=O)C/C1=C/C=C1\CCC[C@]2(C)[C@@H]([C@H](C)CCCC(C)(C)O)CC[C@@H]12` (stereo partly shown) [EXT608], in data set [1], the “fold more soluble, acetate salt vs carbonate salt” value is recorded as 17.6 fold. The solubility (usually the dissolved amount per volume that the medium holds) was 9.67 mM in data set [1] (acetate salt, read-out: Solubility as Acetate) and 0.55 mM in data set [1] (carbonate salt, read-out: Solubility as Carbonate). Moreover, the half-life in data set [2] was 24 to 32 h; in data set [3] (in vivo, repeated daily SC dosing, across doses 1-70 μg/kg, read-out: t1/2 of elimination), 10.4 to 13.8 h. Besides, in data set [3] (setting [4]), the Tmax (in general, the time at which the peak concentration occurs) turned out to be 1 h. Also, the Cmin in data set [3] (daily SC 1 μg/kg, 90 days) was 0.299 ng/mL; in data set [3] (daily SC 3 μg/kg, 90 days), 0.875 ng/mL; in data set [3] (daily SC 10 μg/kg, 90 days) it was 1.56 ng/mL; in data set [3] (daily SC 14.2 μg/kg, 21 days), 2.35 ng/mL; in data set [3] (daily SC 70 μg/kg, 21 days) it was 5.92 ng/mL. Besides, the AUC(0-t) came out at 11.2 ng·h/mL in data set [3] (setting [4]); 29.9 ng·h/mL in data set [3] (in vivo, 3 ug/kg, daily SC 3 μg/kg, 90 days); 93.2 ng·h/mL in data set [3] (in vivo, 10 ug/kg, daily SC 10 μg/kg, 90 days); 149 ng·h/mL in data set [3] (in vivo, 14.2 ug/kg, daily SC 14.2 μg/kg, 21 days); 875 ng·h/mL in data set [3] (in vivo, 70 ug/kg, daily SC 70 μg/kg, 21 days).
